# Laboratory results reported in the nanobody polyreactivity screen of Harvey et al. (2022).
# Assay: yeast display, Sf9 membrane polyspecificity reagent, FACS + sequencing; frameworks hold sequencing errors
# In short: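 Using colony PCR, genes from sorted yeast display clones were amplified, then sequenced on MiSeq at 2 × 250 and filtered by CDR length. The clones had been stained with 10% biotinylated, detergent-solubilized Sf9 membrane reagent for 1 hour at 4 °C and sorted by FACS into low and high (top ~1%) gates on anti-HA and streptavidin fluorescence. Polyreactivity labels come from the gate of origin.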
row,Sequence,polyreactivity (PSR sort gate)
1,QVQLVESGGGLVQAGGSLRLSCGASGSTFDHYAMGWYRQAPGKERELVAAITRSGGSTYYADSVKGRFTISRDNAKNTVYIQMNSLKPEDTAVYYCNARRWITSDYWGQGTQVTVSS,high polyreactivity
2,QVQLVESGGGLVQAGGSLRLSCPASGFIFYDYAMGWYRQAPGKERELVAAISSGGSTNYADSVKGRFTISRDNAKNTVYLQMNSLKPEDTAVYYCAADDRSYATWKRDYDYWGQGTQVTVSS,low polyreactivity
3,QVQLVESGGGLVQAGGSLRLSCPASGFTFGSYAMGWYRQAPGKETEFVAVITRSGRTNYADSVKGRFTISRDNAKNTVYLQMNSLKPEDTAVYYCYADDVDDEVSPDLTEMDYWGQGTQVTVSS,low polyreactivity
4,QVQLVESGGGLVQAGGSLRLSCPASGFTFGYYAMGWYRQSPGKESELVATITSSGASTYADSVKGRFTISGDNAKNTVYLQMISLKPEDTAVYYCAADRLPSYWSWYGYDYWVQGTQVTVSS,high polyreactivity
5,QVQLVESGGGLVQAGGSLRLSCPASGFTIRRNAMGCYRQAPGKERELVAAITRGGGSTYYADSVKGRFTISRDNAKNTVYLQMNSLKPEDTAVYYCSADGYYQYESWGQGTQVTVSS,high polyreactivity
6,QVQLVESGGGLVQAGGSLRLSCPASGFYAMGWYRQAPGKERELVAAIRGSGSSTYYADSVKGRFTISRDNAKNTVYLQMNSLKPEDTAVYYCAKQGYLVWSGWRWYDYWGQGTQVTVSS,low polyreactivity
7,QVQLVESGGGLVQAGGSLRLSCPASGIIFDRNAMGWYRQAPVKERELVAAITGSGGSTYYADSVKGRFTISRDNAKNTVYLQMNSLKPEDTAVYYCAATYLSRWTLYDYWGQGTQVTVSS,high polyreactivity
8,QVQLVESGGGLVQAGGSLRLSCPASGINFIFYAMAWYREAPGKERELVATIRRSGSTYYADSVKGRFTISRDNAKNTVYLQMNSLKPEDTAVYYCNARYPYSYGDYWGQGTQVTVSS,high polyreactivity
9,QVQLVESGGGLVQAGGSLRLSCPASGITFGTNAMGWYIQAPGKERELVAAISKRGSSTYYADSVKGRFTISRDNAKNTVYLQMNSLKPEDTAVYYCNVVDERTRNLSKFYYWGQGTQVTVSS,high polyreactivity
10,QVQLVESGGGLVQAGGSLRLSCPASGLTFAYYTMGWYRQSPGKERELVADISRSGGSTYYADSVKGRFTISRDNAKNTVYLQMNSLKPEDSAVYYCAARANVYTKKRDYWGQGTQVTVSW,high polyreactivity
11,QVQLVESGGGLVQAGGSLRLSCPASGRIFDYYAMGRYRQAPGKERELVARITSGGTTNYADSVKGRFTISRDNAKNTVFLQMNSLKPEDTAVYYCNAQDYCDPLQMDYWGQGTQVTVSS,low polyreactivity
12,QVQLVESGGGLVQAGGSLRLSCPASGRIFKWYAMGWYRPAPGKERELVAAISWSGGRTYYADSVKGRFTISRDNAKNTVYLQMHSVKPEDTAVYYCAAAIRYRNYVYLYDYWGQGTQVTVSS,high polyreactivity
13,QVQLVESGGGLVQAGGSLRLSCPASGRTFRYYAMGWYRQAPGKERELVAAITANGGSTFYADSVKGRFTISRDNAKNTVYLQMNSLKPEDTAVYYCAARFYTSSRYNYWGQGTQVTVSS,high polyreactivity
14,QVQLVESGGGLVQAGGSLRLSCPASGRTFYRNAMGWYRQAPGKEREFVAVITWSTGTTYYADSVKGRFTISRDNAKNTVYLQMNSPKPEDTAVYYCAADSQPPHELYESIEHESWGQGTQVTVSS,low polyreactivity
15,QVQLVESGGGLVQAGGSLRLSCPASGRTSVINAMGWYRQAPGKETELVATITWSAASTYYADSVKGRFTISRDNAKNTVYLQMNSLKPEDTAVYYCATDSAQYGYDYWGQGTQVTVSS,low polyreactivity
16,QVQLVESGGGLVQAGGSLRLSCPASGSIFDRYAMGWYRQAPGKERELVAAISWSDSRTYYADSVKGRFTISRDNAKNTVYFQMNSLKPEDTAVYYCAADGSTWGDYRTYGYWGQGTQVTVSS,low polyreactivity

row,Sequence,polyreactivity (PSR sort gate)
1,QVQLVESGGGLVQAGGSLRLSCPASGSIFQGNAMGWYRQAPGKERELVAAISWSGDSTYYADSVKGRFTISRDNAKNTVYLQMNSLKPEDTAVYYCNAEWTRDFYEYDYWGQGTQVTVSS,low polyreactivity
2,QVQLVESGGGLVQAGGSLRLSCPASGSIFYENAMGWYRQAPGKARELVAAISRSGGSTYYADSVKGRFTISRDNAKNTVYLQMNSLKPEDTAVYYCNTEGGVIRRYWYDYWGQGTQVTVSS,low polyreactivity
3,QVQLVESGGGLVQAGGSLRLSCPASGSTFWYYDMGWSRQAPGKERELVAAISGSGGRTYYADSVKGRFTISRDNAKNTVYLQMNSLKPEDTAVYYCAADYYWSADFKYNDWGQGTQVTVAS,low polyreactivity
4,QVQLVESGGGLVQAGGSLRLSCPASGYTFYVYAMGWYRQAPGKERELVAAIGGGSTNYADSVKGRFTISRDNAKNTVYLQMNSLKPEDTAVYYCAARRYYKFYYWGQGTQVTVSS,high polyreactivity
5,QVQLVESGGGLVQAGGSLRLSCPDSGFIFYLYDMGWYRQAPGKEREVVAAITDRGGSTYYADSVKGRFTITRDNAKITVYLQLKSLKPEDTAVYSCAAASSAIDSSVTMDYWGQGTQVTVSS,low polyreactivity
6,QVQLVESGGGLVQAGGSLRLSCSASGGTFITNAMGWYRQAPGKERELVAAITSGGRTTYADSVKGRFTISRDNAKNTVYLQMNSLKPEDTAVYYCAADHVYSYTYNFDYWGQGTQVTVSS,low polyreactivity
7,QVQLVESGGGLVQAGGSLRLSCSASGITFEGYAMGGYRQAPGKERELVAAIRSSGTSRYYADSVKGRFTISRDNAKNTVYLQMNSQKPEDTAVYYCNRARSSSRYDYWGQGTQVTVSS,low polyreactivity
8,QVQLVESGGGLVQAGGSLRLSCSASGITFTGYGMGWYRQAPGKERELVAAIRLRTGSTYYADSVKGRFTISRDNAKNTVYLQMNSLKPEDTAVYYCAKKWSSKYWGQGTQVTVSS,high polyreactivity
9,QVQLVESGGGLVQAGGSLRLSCSASGLIFWAYAMGWYRQAPGKERELVAAINWRGGSTYYADSVKGRFTISRDNAKNTVYLQMNSLKPEDTAVYYCNTDFQLGEGGSYGYDYWGQGTQVTVSS,low polyreactivity
10,QVQLVESGGGLVQAGGSLRLSCSASGLTFGNNAMGWYRQAPGKETELVAAISSDGTTYYADSVKGRFTISRDHAKNTVYLQMNSLKPEDSAVYYCAALYGPGREYDYWGQGTQVTVSS,low polyreactivity
11,QVQLVESGGGLVQAGGSLRLSCSASGRIFDTYAMGWYRQAPGKERELVAAIRRTGGSTYYADSVKGRFTISRDNAKNTVYLQMNSLKPEDTAVYYCAAEYTVSYLRMDYWGQGTQVTVSS,low polyreactivity
12,QVQLVESGGGLVQAGGSLRLSCSASGRILVLNAMGWYRQAPGTERELVADITSGGSTYYADSVKGRFTISRDNAKNTVYLQMNSLKPEDTAVYYCAADWNTYPDYQQSYFVSYEYNYWGQGTQVTVSS,low polyreactivity
13,QVQLVESGGGLVQAGGSLRLSCSASGRISVFNVMGWYRQAPGKERELVAAITSGGSTIYADSVKGRFTISRDNAKNTVYLQMNSLKPEDTAVYYCAALYQFHGKIWDGDYWGQGTQVTVSS,low polyreactivity
14,QVQLVESGGGLVQAGGSLRLSCSASGRTFSWYAMGWYRKAPGKERELVAAISYSGGSTYYADSVKGRFTISRDNAKNTVYLQMNSLKPEDTAVYYCARTRRHSQNFDYWGQGTQVIVSS,high polyreactivity
15,QVQLVESGGGLVQAGGSLRLSCSASGRTLGRNAMGWYRPAPGKERELVAAISWGGGDTSYADSVKGRFTISRDNAKNTVYLQMNSLKPEDTAVYYCNRYYTPYRRWGYDYWGQGTQVTVSS,high polyreactivity
16,QVQLVESGGGLVQAGGSLRLSCSASGRTSQWNAMGWYRQAPGKERELVAAISWRTGGTYYADSVKGRFTISRDKAKNTVYLQMNSLQPEDTAVYYCAAGYIGGRPQYWRIGGYWGQGTQVTVSS,high polyreactivity
